The source of these data is publication PMC9394474.

In this test the target is human hisTRIM7-PRYSPRY (human) (UniProt Q9C029). Put plainly: ITC. On the technique in general: In ITC the heat of successive injections is recorded.

Substance dipeptide LQ registered a Kd of 200 µM.
With ac-LLQ (peptide) the figure was 39 µM.

Broadly, the Kd is the equilibrium constant for the complex coming apart. Higher therefore signals a looser complex.
